Experimental data as given in patent publication US8217140B2, “Peptides capable of binding to serum proteins and compounds, constructs and polypeptides comprising the same” (Ablynx N.V., priority 2008, dated 2012).
Read-outs that look alike come from different tables or passages of the source.

Tests used:
human serum albumin [1] = molecular target: T1, human serum albumin (Homo sapiens, UniProt P02768); assay: Co-crystal structure and in silico modelling of peptide with human serum albumin; conditions: crystal structure and modeling data
Protocol: The crystal structure was determined as follows: the purified proteins were used in crystallization trials employing both, a standard screen of approximately 1200 different conditions, as well as crystallization conditions identified using literature data. Conditions initially obtained have been optimized using standard strategies, systematically varying parameters critically influencing crystallization, such as temperature, protein concentration, drop ratio, etc. These conditions were also refined by systematically varying pH or precipitant concentrations. Crystals were obtained via the method of co-crystallization.
Crystals have been flash-frozen and measured at a temperature of 100K. The X-ray diffraction have been collected at the SWISS LIGHT SOURCE (SLS, Villigen, Switzerland) using cryogenic conditions. Data were processed using the programs XDS and XSCALE. The phase information necessary to determine and analyze the structure was obtained by molecular replacement. Subsequent model building and refinement was performed with the software packages CCP4 and COOT. The peptide parameterization was carried out with the program […].
Modeling of the interaction was performed using ICM-Pro (Molsoft) and Discovery Studio (Accelrys) with a force-field that is based on the parameters as described in Momany et al. (Momany et al. J. Phys. Chem. 1975, 79, 2361-2381)

human serum albumin [2] = molecular target: T1, human serum albumin; assay: Phage ELISA on HSA-coated plates; format: binding; conditions: phage clones; near-infrared fluorescence intensity vs phage dilution, FIG. 2
Protocol: 5-fold serial dilutions of phage clones (starting from ˜5×10^11 phage) were added to 96-well Nunc Maxisorp plates coated with human serum albumin (2 μg/ml in PBS, overnight at 4° C.; plates were blocked with Superblock T20 (Pierce) for 1 h at room temperature). The microtiter plate was washed with wash buffer (PBS, 0.05% Tween 20) and bound phages were detected with anti-M13 and goat-anti mouse IRDye conjugate (610-130-121, Rockland). The amount of IRDye bound was measured on Odyssey (LI-COR Biosciences). The dilution of phage was plotted against measured near-infrared fluorescence intensity (FIG. 2).

human serum albumin [3] = molecular target: T1, human serum albumin; assay: Surface plasmon resonance (BIAcore 3000) of 2D3 fusion proteins, Example 6; format: binding
Protocol: (§1) The binding of the resulting 2D3-17D12 and 2D3-56H5 fusion proteins to human serum albumin was determined using surface plasmon resonance analysis. For this purpose, the fusion proteins were expressed in E. coli TG1 cells. The fusion proteins were purified by IMAC/SEC and binding to HSA was assessed in BIAcore™ 3000, by injecting 1 μM and 5 μM of the 2D3-17D12 and 2D3-56H5 fusion proteins on a CM5 chip coated with ˜7000 RU human serum albumin (Sigma, 99% pure) and 2460 RU an irrelevant protein antigen (reference). Coating of the chip (CM5) was performed by amine coupling using NHS/EDC for activation and ethanolamine for deactivation (Biacore amine coupling kit). HBS-EP was used as flow buffer at a rate of […]. 20 μl of sample was injected for 120 s. The 2D3 Nanobody was injected as control.

[4] = test system: irrelevant protein antigen; assay: Surface plasmon resonance control on chip coated with irrelevant protein, Example 6; format: binding; conditions: 5 μM injected; CM5 chip coated with irrelevant protein (2400RU)
Protocol: as §1

[5] = molecular target: Cynomolgus monkey serum albumin (Macaca fascicularis, UniProt A2V9Z4); assay: Surface plasmon resonance (BIAcore 3000) of 2D3-9GS-56E4 and 2D3-9GS-59C2, Example 11; format: binding; conditions: for ka: untagged constructs
Protocol: (§2) The binding was determined in BIAcore™ 3000, by injecting concentration series of the fusion proteins ranging from 2 μM to 200 nM on a CM5 chip coated with ˜3000 RU HSA or CSA. Coating of the chip (CM5) was performed by amine coupling using NHS/EDC for activation and ethanolamine for deactivation (Biacore amine coupling kit). HBS-EP was used as flow buffer at a rate of 45 μl min-1. 90 μl of sample was injected for 120 s.

human serum albumin [6] = molecular target: T1, human serum albumin; assay: as above; format: binding
Protocol: as §2

[7] = Pharmacokinetic profile in male cynomolgus monkeys: monovalent Nanobody 2D3 constructs; format: in vivo, Cynomolgus monkey; conditions: for exposure higher and total body clearance (CL) lower than after 2D3: on average, relative to control article 2D3; for AUCinf / C0: serum
Protocol: The pharmacokinetic profile of this 2D3-9GS-EXP56E4 Nanobody construct (“construct” or “test item” hereafter) was analysed in male cynomolgus monkeys of approximately 3 to 4 years old and was compared to the 2D3 control (“control” or “negative control” hereafter). The construct and the control were each injected in three monkeys. Both the construct and the control were administered at a dose of 2 mg/kg via intravenous infusion. Blood samples were taken at predose, 5 min, 20 min, 1 h, 2 h, 4 h, 8 h, and 16 h after administration and at test days 2, 3, 5, 7, 9, 12, 15, 18, 21, 24, 27, 30, 33, 36, 39, 42, 45, 48, 51, 54, and 57 after the start of the infusion. In order to obtain at least 0.25 mL serum per animal per sampling time, a sufficient volume of whole blood was withdrawn per sampling time and the serum was isolated after 1 h of incubation at 37° C. The serum samples were stored at −80° C.
Serum samples were tested for serum levels of construct and the control, respectively, using the following ELISA assay.
96-well microtiter plates (Maxisorp, Nunc, Wiesbaden, Germany) were coated for 1 hour at 37° C. with Recombinant Human ErbB2/Fc Chimera, C F (R&D Systems, Minneapolis) in PBS at 3 μg/mL for the negative control and 4.5 μg/mL for the test item. Wells were aspirated and blocked for 30 minutes at room temperature (RT) with SuperBlock®T20 PBS (Pierce, Rockford, Ill.). After this blocking step, wells were washed with PBS-0.05% Tween20.
Preparations for the standards, QC samples and dilutions of the test samples were performed in a non-coated (polypropylene) plate.
Standard curve and QC-samples: Solutions at the required concentrations were prepared in PBS 0.1% casein and spiked into 100% monkey serum. To prepare standards and QC samples, a 1/10 dilution of the pure monkey serum dilutions was made in PBS-0.1% casein.
Test samples: Dilution factors for the test samples were estimated, and varied from 1/10 to 1/500. Samples were diluted 1/10 in PBS 0.1% casein in a first step, and if needed, further dilution was done in PBS 0.1% casein containing 10% monkey serum. These sample dilutions were further serially diluted 1/5 in PBS 0.1% casein with 10% monkey serum over 2 wells.
Standards, QC samples and the 1/5 dilutions of the test samples were transferred onto the coated plate and incubated for 1 hour at RT. Afterwards the plates were washed and rabbit polyclonal anti-VHH K1, purified against protein A and Her2/Fc depleted, was added at 1 μg/mL in PBS 0.1% casein, and incubated for 1 hour at RT. After washing a 1/2000 dilution in PBS 0.1% casein of horse radish peroxidase labelled goat anti-rabbit (Dakocytomation, Denmark) was added to the plate and incubated for 30 minutes at RT. This enzyme catalyzes a chemical reaction with the substrate sTMB (3,3′,5,5′-tetramethylbenzidine, SDT reagents, Brussels, Belgium), which results in a colorimetric change. After stopping this reaction after 15 minutes using HCl (1N), the intensity of the colour was measured by a spectrophotometer, which determines the optical density of the reaction product, using a 450 nm wavelength of light.
The concentration of the construct and the control in the serum samples was determined towards a standard curve of the construct and the control, respectively. The concentration determination was performed using the sigmoidal dose-response curve with variable slope. All serum samples were tested minimally in duplicate. Average values were reported. For each sample standard deviations and precision between the different results was calculated.
For blood sampling and processing, the pharmacokinetic profile of the constructs (2D3-9GS-EXP56E4 and 2D3-9GS-EXP59C2) and the negative control 2D3 were determined in male Cynomolgus monkeys of approximately 3 to 4 years old and was compared to that of the control (2D3). The constructs and the control were administered to three monkeys at a dose of 2 mg/kg by intravenous bolus injection. […]

[8] = i.v. bolus 2 mg/kg, male Cynomolgus monkey, mean n = 3

Sequence of Cynomolgus monkey serum albumin (A2V9Z4 25-608): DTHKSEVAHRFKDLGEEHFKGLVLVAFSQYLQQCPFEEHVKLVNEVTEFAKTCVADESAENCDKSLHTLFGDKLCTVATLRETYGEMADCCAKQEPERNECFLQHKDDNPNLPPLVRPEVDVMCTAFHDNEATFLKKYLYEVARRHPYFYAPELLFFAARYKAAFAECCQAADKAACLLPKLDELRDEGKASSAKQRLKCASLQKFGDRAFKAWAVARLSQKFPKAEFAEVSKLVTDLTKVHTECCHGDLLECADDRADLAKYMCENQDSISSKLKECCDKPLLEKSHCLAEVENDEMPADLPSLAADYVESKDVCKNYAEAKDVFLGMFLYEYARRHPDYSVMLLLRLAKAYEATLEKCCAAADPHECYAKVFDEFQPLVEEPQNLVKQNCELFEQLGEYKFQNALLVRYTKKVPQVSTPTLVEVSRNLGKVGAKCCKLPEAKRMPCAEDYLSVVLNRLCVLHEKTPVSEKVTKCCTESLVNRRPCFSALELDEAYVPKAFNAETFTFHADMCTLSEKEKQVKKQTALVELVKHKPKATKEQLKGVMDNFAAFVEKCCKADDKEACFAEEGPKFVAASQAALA

Molecule | binding to HSA compared to the amino acid sequence of SEQ ID NO: 1 (human serum albumin [2]) | koff (dissociation rate constant) [5] [s⁻¹] | ka [5] | Vdss [7, 8] [L/kg] | exposure higher and total body clearance (CL) lower than after 2D3 [7] [fold] | mean Vdss lower compared to 2D3 ([7]; relative to 2D3) [fold] | AUCinf [7, 8] [µg·h/mL] | C0 [7, 8] [µg/mL] | other results
AAARYWDYDVFGGGTPVGGAAA [peptide of SEQ ID NO: 143, based on EXP56E4 with an additional N-terminal alanine and three C-terminal alanine residues] | – | – | – | – | – | – | – | – | binding site on human serum albumin (human serum albumin [1]): binds in a deep subpocket of domain I of human serum albumin
2D3-56H5: SEQ ID NO: 139, fusion of Nanobody 2D3 and peptide 56H5 with Myc-His tag (protein, Myc-His tag; fusion protein) EVQLVESGGSLVQPGGSLRLSCAASGFTFDDYAMSWVRQVPGKGLEWVSSINWSGTHTDYADSVKGRFTISRNNANNTLYLQMNSLKSEDTAVYYCAKNWRDAGTTWFEKSGSAGQGTQVTVSSGGGGSGGGSAAAFYDDYDVFGGGTPAGGAAAEQKLISEEDLNGAAHHHHHH | – | – | – | – | – | – | – | – | binding to HSA (surface plasmon resonance, FIG. 5) (human serum albumin [3]; 1 μM and 5 μM injected, comparison with 2D3-17D12 fusion protein): improved binding; ka (human serum albumin [3]; CM5 chip ~7000 RU HSA): 7570 M⁻¹ s⁻¹; kd (human serum albumin [3]; CM5 chip ~7000 RU HSA): 0.0093 s⁻¹; specific binding to irrelevant protein [4]: no specific binding was detected
2D3-9GS-EXP56E4: SEQ ID NO: 142, fusion of peptide 56E4 and Nanobody 2D3 via 9GS linker (protein) EVQLVESGGSLVQPGGSLRLSCAASGFTFDDYAMSWVRQVPGKGLEWVSSINWSGTHTDYADSVKGRFTISRNNANNTLYLQMNSLKSEDTAVYYCAKNWRDAGTTWFEKSGSAGQGTQVTVSSGGGGSGGGSRYWDYDVFGGGTPVGG | – | 0.00847 | 1.71E+04 1/ms | 0.0503 | 23 | 2.3 | 458 | 66.8 | Kd (human serum albumin [6]; dissociation rate): 0.00497 s⁻¹; Kd (human serum albumin [6]; read-out: KD): 342 nM; ka (human serum albumin [6]; untagged constructs): 1.04E+04 1/ms; Terminal Half-life ([7]; cynomolgus monkeys, 2 mg/kg intravenous infusion, Table IV): 8.54 ± 0.79 h; t½ (terminal half-life) ([7]; i.v. bolus 2 mg/kg, male Cynomolgus monkey, mean n = 3, 2 mg/kg): 8.54 h; terminal half-life (t½) increase relative to 2D3 ([7]; relative to 2D3): 4.2 fold
2D3-9GS-59C2: SEQ ID NO: 164, 59C2 without the two N-terminal alanines fused via 9GS linker to C-terminus of 2D3 (protein) EVQLVESGGSLVQPGGSLRLSCAASGFTFDDYAMSWVRQVPGKGLEWVSSINWSGTHTDYADSVKGRFTISRNNANNTLYLQMNSLKSEDTAVYYCAKNWRDAGTTWFEKSGSAGQGTQVTVSSGGGGSGGGSRDWDFDVFGGGTPVGG | – | 0.00247 | 8.98E+03 1/ms | 0.0455 | 77 | 2.6 | 1540 | 62.5 | –

The next lines start with results.

binding to HSA compared to the amino acid sequence of SEQ ID NO: 1 (human serum albumin [2]) | koff (dissociation rate constant) [5] [s⁻¹] | ka [5] | Molecule | Vdss [7, 8] [L/kg] | exposure higher and total body clearance (CL) lower than after 2D3 [7] [fold] | mean Vdss lower compared to 2D3 ([7]; relative to 2D3) [fold] | AUCinf [7, 8] [µg·h/mL] | C0 [7, 8] [µg/mL] | other results
stronger binding | – | – | AAPYRDYDVFGGGTPRGE [56 F2] | – | – | – | – | – | –
stronger binding | – | – | AAYYYDYDVFGGGTPGGE [56 E2] | – | – | – | – | – | –
